Target: hexon protein of HAdV-20-42-42 (human adenovirus HAdV-20-42-42 (strain …))
Test: SPR; affinity and interaction half-life told as data not shown; CD46 immobilised, hexon as analyte
Conditions: both partners purified

B1: CD46 (receptor)
chain: CEEPPTFEAMELIGKPKPYYEIGERVDYKCKKGYFYIPPLATHTICDRNHTWLPVSDDACYRETCPYIRDPLNGQAVPANGTYEFGYQMHFICNEGYYLIGEEILYCELKGSVAIWSGKPPICEKVLCTPPPKIKNGKHTFSEVEVFEYLDAVTYSCDPAPGPDPFSLIGESTIYCGDNSVWSRAAPECKVVKCRFPVVENGKQISGFGKKFYYKATVMFECDKGFYLDGSDTIVCDSNSTWDPPVPKCLKVLPPSSTKPPALSHSVSTSSTTKSPASSASGPRPTYKPPVSNYPGYPKPEEGILDSLD
Kd: 13.5 µM
